Results from patent US20240100162A1 (published 2024).

Columns and labels:
[1] = biological target: T1, MAGE-B2 peptide, E6V peptide on HLA-A*02:01 (human); test: killing
T1 peptide: GVYDGVEHSV

[2] = biological target: T2, MAGE-B2 peptide, E7C peptide on HLA-A*02:01 (human); test: killing
T2 peptide: GVYDGECHSV

[3] = biological target: T3, MAGE-B2 peptide, E7D peptide on HLA-A*02:01 (human); test: killing
T3 peptide: GVYDGEDHSV

[4] = biological target: T4, MAGE-B2 peptide, E7H peptide on HLA-A*02:01 (human); test: killing
T4 peptide: GVYDGEHHSV

[5] = biological target: T5, MAGE-B2 peptide, E7K peptide on HLA-A*02:01 (human); test: killing
T5 peptide: GVYDGEKHSV

[6] = biological target: T6, MAGE-B2 peptide, E7L peptide on HLA-A*02:01 (human); test: killing
T6 peptide: GVYDGELHSV

[7] = biological target: T7, MAGE-B2 peptide, E7M peptide on HLA-A*02:01 (human); test: killing
T7 peptide: GVYDGEMHSV

[8] = biological target: T8, MAGE-B2 peptide, E7N peptide on HLA-A*02:01 (human); test: killing
T8 peptide: GVYDGENHSV

[9] = biological target: T9, MAGE-B2 peptide, E7Q peptide on HLA-A*02:01 (human); test: killing
T9 peptide: GVYDGEQHSV

[10] = biological target: T10, MAGE-B2 peptide, E7Y peptide on HLA-A*02:01 (human); test: killing
T10 peptide: GVYDGEYHSV

[11] = biological target: T11, MAGE-B2 peptide, H8F peptide on HLA-A*02:01 (human); test: killing
T11 peptide: GVYDGEEFSV

[12] = biological target: T12, MAGE-B2 peptide, H8N peptide on HLA-A*02:01 (human); test: killing
T12 peptide: GVYDGEENSV

[13] = biological target: T13, MAGE-B2 peptide, H8W peptide on HLA-A*02:01 (human); test: killing
T13 peptide: GVYDGEEWSV

[14] = biological target: T14, MAGE-B2 peptide, H8Y peptide on HLA-A*02:01 (human); test: killing
T14 peptide: GVYDGEEYSV

[15] = biological target: T15, MAGE-B2 peptide, S9A peptide on HLA-A*02:01 (human); test: killing
T15 peptide: GVYDGEEHAV

[16] = biological target: T16, MAGE-B2 peptide, S9C peptide on HLA-A*02:01 (human); test: killing
T16 peptide: GVYDGEEHCV

[17] = biological target: T17, MAGE-B2 peptide, S9D peptide on HLA-A*02:01 (human); test: killing
T17 peptide: GVYDGEEHDV

[18] = biological target: T18, MAGE-B2 peptide, S9E peptide on HLA-A*02:01 (human); test: killing
T18 peptide: GVYDGEEHEV

[19] = biological target: T19, MAGE-B2 peptide, S9G peptide on HLA-A*02:01 (human); test: killing
T19 peptide: GVYDGEEHGV

[20] = biological target: T20, MAGE-B2 peptide, S9I peptide on HLA-A*02:01 (human); test: killing
T20 peptide: GVYDGEEHIV

[21] = biological target: T21, MAGE-B2 peptide, S9N peptide on HLA-A*02:01 (human); test: killing
T21 peptide: GVYDGEEHNV

[22] = biological target: T22, MAGE-B2 peptide, S9P peptide on HLA-A*02:01 (human); test: killing
T22 peptide: GVYDGEEHPV

[23] = biological target: T23, MAGE-B2 peptide, S9Q peptide on HLA-A*02:01 (human); test: killing
T23 peptide: GVYDGEEHQV

[24] = biological target: T24, MAGE-B2 peptide, S9T peptide on HLA-A*02:01 (human); test: killing
T24 peptide: GVYDGEEHTV

[25] = biological target: T25, MAGE-B2 peptide, S9V peptide on HLA-A*02:01 (human); test: killing
T25 peptide: GVYDGEEHVV

[26] = biological target: T26, MAGE-B2 peptide, S9W peptide on HLA-A*02:01 (human); test: killing
T26 peptide: GVYDGEEHWV

[27] = biological target: T27, MAGE-B2 peptide, V10A peptide on HLA-A*02:01 (human); test: killing
T27 peptide: GVYDGEEHSA

[28] = biological target: T28, MAGE-B2 peptide, V10I peptide on HLA-A*02:01 (human); test: killing
T28 peptide: GVYDGEEHSI

[29] = biological target: T29, MAGE-B2 peptide, V10L peptide on HLA-A*02:01 (human); test: killing
T29 peptide: GVYDGEEHSL

[30] = biological target: T30, MAGE-B2 peptide, V2I peptide on HLA-A*02:01 (human); test: killing
T30 peptide: GIYDGEEHSV

[31] = biological target: T31, MAGE-B2 peptide, V2L peptide on HLA-A*02:01 (human); test: killing
T31 peptide: GLYDGEEHSV

[32] = biological target: T32, MAGE-B2 peptide, V2M peptide on HLA-A*02:01 (human); test: killing
T32 peptide: GMYDGEEHSV

[33] = biological target: T33, MAGE-B2 peptide, V2T peptide on HLA-A*02:01 (human); test: killing
T33 peptide: GTYDGEEHSV

[34] = biological target: T34, MAGE-B2 peptide, Y3F peptide on HLA-A*02:01 (human); test: killing
T34 peptide: GVFDGEEHSV

[35] = biological target: T35, MAGE-B2 peptide, D4C peptide on HLA-A*02:01 (human); test: killing
T35 peptide: GVYCGEEHSV

[36] = biological target: T36, MAGE-B2 peptide, D4N peptide on HLA-A*02:01 (human); test: killing
T36 peptide: GVYNGEEHSV

[37] = biological target: T37, MAGE-B2 peptide, D4P peptide on HLA-A*02:01 (human); test: killing
T37 peptide: GVYPGEEHSV

[38] = biological target: T38, MAGE-B2 peptide on HLA-A*02:01 (human); test: multimer staining
T38 peptide: GVYDGEEHSV

[39] = biological target: T39, MAGE-B2 peptide, E7A peptide on HLA-A*02:01 (human); test: killing
T39 peptide: GVYDGEAHSV

[40] = biological target: T40, MAGE-B2 peptide, S9M peptide on HLA-A*02:01 (human); test: killing
T40 peptide: GVYDGEEHMV

[41] = biological target: T41, MAGE-B2 peptide, S9R peptide on HLA-A*02:01 (human); test: killing
T41 peptide: GVYDGEEHRV

Measured: binding result

B1: TCR1 (TCR, V domains shown)
Valpha: KQEVTQIPAALSVPEGENLVLNCSFTDSAIYNLQWFRQDPGKGLTSLLLIQSSQREQTSGRLNASLDKSSGRSTLYIAASQPGDSATYLCAAMKTSYDKVIFGPGTSLSVIP
Vbeta: GEEVAQTPKHLVRGEGQKAKLYCAPIKGHSYVFWYQQVLKNEFKFLISFQNENVFDETGMPKERFSAKCLPNSPCSLEIQATKLEDSAVYFCASSQGQGGYGYTFGSGTRLTVV
not listed: [39] | [40] | [41]
recognises: all other assays above

B2: TCR2 (TCR, V domains shown)
Valpha: QKEVEQNSGPLSVPEGAIASLNCTYSDRGSQSFFWYRQYSGKSPELIMSIYSNGDKEDGRFTAQLNKASQYVSLLIRDSQPSDSATYLCAVNIPFSNSGGYQKVTFGTGTKLQVIP
Vbeta: NAGVTQTPKFRVLKTGQSMTLLCAQDMNHEYMYWYRQDPGMGLRLIHYSVGEGTTAKGEVPDGYNVSRLKKQNFLLGLESAAPSQTSVYFCASRHPGQYNQPQHFGDGTRLSIL
not listed: [5]
recognises: all other assays above

B3: TCR3 (TCR, V domains shown)
Valpha: AQKVTQAQTEISVVEKEDVTLDCVYETRDTTYYLFWYKQPPSGELVFLIRRNSFDEQNEISGRYSWNFQKSTSSFNFTITASQVVDSAVYFCALSVLRMDSSYKLIFGSGTRLLVRP
Vbeta: NAGVTQTPKFRVLKTGQSMTLLCAQDMNHEYMYWYRQDPGMGLRLIHYSVGEGTTAKGEVPDGYNVSRLKKQNFLLGLESAAPSQTSVYFCASSLQGAGQPQHFGDGTRLSIL
not listed: [37]
recognises: all other assays above
